What was measured:
Test in all cases: biolayer interferometry, immobilised biotin-peptide
[1] = biological target: GABARAP (UniProt O95166); conditions: reference: unphosphorylated LIR1 peptide
[2] = biological target: GABARAPL1 (UniProt Q9H0R8); conditions: reference: unphosphorylated LIR1 peptide; sites Y1092
[3] = biological target: GABARAPL2 (UniProt P60520); conditions: reference: unphosphorylated LIR1 peptide; sites Y1092
[4] = biological target: LC3A (UniProt Q9H492); conditions: reference: unphosphorylated LIR1 peptide; sites Y1092
[5] = biological target: LC3B (UniProt Q9GZQ8); conditions: reference: unphosphorylated LIR1 peptide; sites Y1092

Substance: EGFR LIR1, 1076-1099 (from UniProt P00533) pS1081 LIR1 peptide
- fold change ([1]; sites S1081): stronger

Substance: EGFR LIR1, 1076-1099 (from UniProt P00533) pS1081/pT1085 LIR1 peptide
- fold change ([1]; sites S1081,T1085): stronger

Substance: EGFR LIR1, 1076-1099 (from UniProt P00533) pT1085 LIR1 peptide
- fold change ([1]; sites T1085): stronger

Substance: EGFR LIR1, 1076-1099 (from UniProt P00533) pY1092 LIR1 peptide
- binding against the reference ([1]; sites Y1092): same
- binding against the reference [2]: same
- binding against the reference [3]: same
- binding against the reference [4]: same
- binding against the reference [5]: same

— doi:10.1101/2024.07.10.602929
